Three molecules from publication PMC4347215 (Nature Communications, 2015) can be followed below.

Assay [1] addresses recombinant CA/09 NA (neuraminidase of A/California/07/2009) (Influenza A virus A/California/07/2009 …, UniProt C3W5S3). Briefly: BLI. The following applies: both partners purified.
In assay [2] the target is NA (CA/09) as antigen of the ELISA of Supplementary Fig. 5 (Influenza A virus A/California/07/2009 …, UniProt C3W6G3, strain). Briefly: ELISA. On the technique in general: In an ELISA, binding on a coated surface is turned into a signal by an enzyme label.
Assay [3] addresses recombinant CA/09 NA, thrombin-cleaved (His-tag depleted) (influenza A virus A/California/07/2009 …, UniProt C3W5S3, N-linked glycans seen at Asn88, Asn146 and Asn235). Briefly: crystal structure. The following applies: both partners purified.

Usually Kd stands for the equilibrium constant for the complex coming apart. The stoichiometry N is the number of molecules, sites or subunits per partner or assembly.

B1: monoclonal antibody CD6 (whole IgG) (antibody, V domains shown)
VH: QVKLQESGGGLVQPKGSLKLSCAASGFTFNTYAMNWVRQAPGKGLEWVARIRSKSNNYATFYADSVKDRFTISRDDSQSMLYLQMHNLKTDDTAMYYCVRPSIYYYASGYLDVWGAGTTVTVSS
VL: QIVLSQSPAILSASPGEKVTMTCRTSSSVSYMHWYQQKPGSSPKPWIYATSNLASGVPFRFSGSGSGTSYSLTISRVEAEDAATYYCQQWNSNPPTFGGGTKLEIK
notes: copies: 2 + 2
B1: in assay [1], the Kd is roughly 95 nM. Further, in assay [2], the binding result was “binds”.

B2: CD6 Fab2 (other)
VH: QVKLQESGGGLVQPKGSLKLSCAASGFTFNTYAMNWVRQAPGKGLEWVARIRSKSNNYATFYADSVKDRFTISRDDSQSMLYLQMHNLKTDDTAMYYCVRPSIYYYASGYLDVWGAGTTVTVSS
VL: QIVLSQSPAILSASPGEKVTMTCRTSSSVSYMHWYQQKPGSSPKPWIYATSNLASGVPFRFSGSGSGTSYSLTISRVEAEDAATYYCQQWNSNPPTFGGGTKLEIK
notes: F(ab')2 fragment; copies: 2 + 2
As to B2, in assay [2], the binding result was “binds”.

B3: CD6 Fab (Fab, V domains shown)
VH: QVKLQESGGGLVQPKGSLKLSCAASGFTFNTYAMNWVRQAPGKGLEWVARIRSKSNNYATFYADSVKDRFTISRDDSQSMLYLQMHNLKTDDTAMYYCVRPSIYYYASGYLDVWGAGTTVTVSS
VL: QIVLSQSPAILSASPGEKVTMTCRTSSSVSYMHWYQQKPGSSPKPWIYATSNLASGVPFRFSGSGSGTSYSLTISRVEAEDAATYYCQQWNSNPPTFGGGTKLEIK
As to B3, the binding result in assay [2] is recorded as “binds”. Further, the “stoichiometry N” value in assay [3] was 4 Fabs per NA tetramer.
